From article PMC3836487

Molecular target: CFP
Assay: FRET or BRET; acceptor photobleaching FRET in live C. crescentus cells on 1 % agarose pads; YFP (acceptor) bleached for 20 s at 532 nm, increase of CFP (donor) emission recorded; cells grown in M2G, 0.3 % xylose for 1 h; apparent FRET efficiency, above 0.5 % taken as an interaction, above 1 % as a strong one

YFP
apparent FRET efficiency: < 0.5%
